The target of this test is heavy meromyosin-like fragment of myosin Va (MyoV-HMM), with its bound calmodulin (mouse | not stated) (UniProt Q99104).
Chain of heavy meromyosin-like fragment of myosin Va (MyoV-HMM), with its bound calmodulin (mouse | not stated) (Q99104 1-1090): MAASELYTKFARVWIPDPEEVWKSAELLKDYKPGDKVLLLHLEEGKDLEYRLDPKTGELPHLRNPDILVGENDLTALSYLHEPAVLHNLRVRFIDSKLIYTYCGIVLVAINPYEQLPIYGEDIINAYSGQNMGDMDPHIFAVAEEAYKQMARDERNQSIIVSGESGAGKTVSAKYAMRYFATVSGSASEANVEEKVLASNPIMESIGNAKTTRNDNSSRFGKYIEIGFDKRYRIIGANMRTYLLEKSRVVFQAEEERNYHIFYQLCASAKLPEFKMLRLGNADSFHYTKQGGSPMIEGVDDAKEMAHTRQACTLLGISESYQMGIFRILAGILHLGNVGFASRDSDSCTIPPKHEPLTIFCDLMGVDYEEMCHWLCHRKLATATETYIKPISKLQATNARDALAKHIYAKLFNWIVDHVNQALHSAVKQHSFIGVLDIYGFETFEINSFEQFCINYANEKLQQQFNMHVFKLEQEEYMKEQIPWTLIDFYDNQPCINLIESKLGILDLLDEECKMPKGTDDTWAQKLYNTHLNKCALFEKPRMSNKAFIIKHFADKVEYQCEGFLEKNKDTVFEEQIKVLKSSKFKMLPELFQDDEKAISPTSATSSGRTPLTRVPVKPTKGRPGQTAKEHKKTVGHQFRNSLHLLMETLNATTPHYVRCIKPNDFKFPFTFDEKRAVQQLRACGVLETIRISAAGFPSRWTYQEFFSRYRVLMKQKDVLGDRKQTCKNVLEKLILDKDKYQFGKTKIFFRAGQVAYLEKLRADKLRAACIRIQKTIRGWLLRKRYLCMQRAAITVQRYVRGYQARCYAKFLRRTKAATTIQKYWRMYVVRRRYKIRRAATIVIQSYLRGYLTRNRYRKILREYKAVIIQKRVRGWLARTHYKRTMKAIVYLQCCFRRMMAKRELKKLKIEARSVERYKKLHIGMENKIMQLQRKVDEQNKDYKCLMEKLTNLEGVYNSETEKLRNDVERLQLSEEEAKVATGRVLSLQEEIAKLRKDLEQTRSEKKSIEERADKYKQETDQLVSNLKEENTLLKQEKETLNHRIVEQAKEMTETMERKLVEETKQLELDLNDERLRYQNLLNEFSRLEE

Substance “Alexa-Fluor-568-labelled calmodulin (from UniProt P62157 1-149) (natural protein)” yielded a labelled calmodulins exchanged per MyoV-HMM of 3 per MyoV-HMM.

The values are drawn from paper PMC2775414.
